# Paper PMC9380774, “Mpe1 senses the binding of pre-mRNA and controls 3′ end processing by CPF” (Molecular Cell, 2022)
# T1: Cft1 (S. cerevisiae, UniProt Q06632 1-1357)
# T1 construct: Cft1, S. cerevisiae, subunit of the polymerase module of CPF; E. coli codon-optimized gene (GeneArt); source: Sf9, baculovirus, co-expressed with Mpe1-SII, in lysate; also as subunit of the purified polymerase module (Sf9)
# T1 sequence: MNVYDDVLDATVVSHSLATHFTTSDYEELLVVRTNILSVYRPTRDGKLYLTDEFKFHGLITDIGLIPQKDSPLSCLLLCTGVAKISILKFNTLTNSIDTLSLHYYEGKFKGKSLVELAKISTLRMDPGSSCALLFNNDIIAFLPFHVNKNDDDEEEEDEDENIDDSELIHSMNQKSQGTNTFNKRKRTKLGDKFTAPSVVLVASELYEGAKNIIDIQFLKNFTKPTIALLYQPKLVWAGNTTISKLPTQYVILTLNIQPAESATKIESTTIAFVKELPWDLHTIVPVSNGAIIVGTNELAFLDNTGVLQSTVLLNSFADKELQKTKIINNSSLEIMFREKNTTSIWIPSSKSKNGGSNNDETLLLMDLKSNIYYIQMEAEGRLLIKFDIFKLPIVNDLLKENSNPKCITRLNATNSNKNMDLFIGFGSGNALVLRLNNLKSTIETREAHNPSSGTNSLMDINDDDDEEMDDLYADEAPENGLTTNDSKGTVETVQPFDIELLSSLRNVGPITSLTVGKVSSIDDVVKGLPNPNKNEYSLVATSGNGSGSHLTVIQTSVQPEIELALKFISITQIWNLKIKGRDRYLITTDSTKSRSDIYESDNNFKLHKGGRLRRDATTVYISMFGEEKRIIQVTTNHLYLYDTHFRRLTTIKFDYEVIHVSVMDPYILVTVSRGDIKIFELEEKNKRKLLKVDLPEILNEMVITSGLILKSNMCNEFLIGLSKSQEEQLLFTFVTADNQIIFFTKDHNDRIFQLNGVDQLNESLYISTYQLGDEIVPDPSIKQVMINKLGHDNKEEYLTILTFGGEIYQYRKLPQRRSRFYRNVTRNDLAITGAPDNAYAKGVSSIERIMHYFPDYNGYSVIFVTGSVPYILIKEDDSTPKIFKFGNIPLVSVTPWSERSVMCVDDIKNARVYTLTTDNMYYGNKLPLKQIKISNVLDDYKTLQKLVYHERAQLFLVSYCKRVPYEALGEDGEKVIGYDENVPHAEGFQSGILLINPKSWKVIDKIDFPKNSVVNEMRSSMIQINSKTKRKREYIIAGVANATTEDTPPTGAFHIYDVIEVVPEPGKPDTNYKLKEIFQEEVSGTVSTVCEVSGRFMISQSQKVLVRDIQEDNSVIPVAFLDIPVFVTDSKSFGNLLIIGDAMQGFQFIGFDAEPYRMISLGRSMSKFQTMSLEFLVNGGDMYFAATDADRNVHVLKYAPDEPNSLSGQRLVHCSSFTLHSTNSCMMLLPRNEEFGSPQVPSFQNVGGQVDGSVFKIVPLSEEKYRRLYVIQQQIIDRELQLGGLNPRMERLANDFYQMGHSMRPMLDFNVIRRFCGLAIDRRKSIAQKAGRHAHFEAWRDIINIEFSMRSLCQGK
# B1: Yth1 (natural protein, S. cerevisiae)
# chain: MSLIHPDTAKYPFKFEPFLRQEYSFSLDPDRPICEFYNSREGPKSCPRGPLCPKKHVLPIFQNKIVCRHWLRGLCKKNDQCEYLHEYNLRKMPECVFFSKNGYCTQSPDCQYLHIDPASKIPKCENYEMGFCPLGSSCPRRHIKKVFCQRYMTGFCPLGKDECDMEHPQFIIPDEGSKLRIKRDDEINTRKMDEEKERRLNAIINGEV
# notes: Yth1, S. cerevisiae, subunit of the polymerase module of CPF; E. coli codon-optimized gene (GeneArt); source: Sf9, baculovirus, co-expressed with Mpe1-SII, in lysate; also as subunit of the purified polymerase module (Sf9)
# B2: StrepII-tagged Mpe1 (Mpe1-SII) (natural protein, S. cerevisiae)
# chain: MSSTIFYRFKSQRNTSRILFDGTGLTVFDLKREIIQENKLGDGTDFQLKIYNPDTEEEYDDDAFVIPRSTSVIVKRSPAIKSFSVHSRLKGNVGAAALGNATRYVTGRPRVLQKRQHTATTTANVSGTTEEERIASMFATQENQWEQTQEEMSAATPVFFKSQTNKNSAQENEGPPPPGYMCYRCGGRDHWIKNCPTNSDPNFEGKRIRRTTGIPKKFLKSIEIDPETMTPEEMAQRKIMITDEGKFVVQVEDKQSWEDYQRKRENRQIDGDETIWRKGHFKDLPDDLKCPLTGGLLRQPVKTSKCCNIDFSKEALENALVESDFVCPNCETRDILLDSLVPDQDKEKEVETFLKKQEELHGSSKDGNQPETKKMKLMDPTGTAGLNNNTSLPTSVNNGGTPVPPVPLPFGIPPFPMFPMPFMPPTATITNPHQADASPKK
# notes: Mpe1, S. cerevisiae, subunit of the nuclease module of CPF; no cleavage is told; also called WT Mpe1; Mpe1-3C-SII; source: Sf9, baculovirus; in lysate, and purified (Strep-Tactin, MonoQ)
# B3: Cft2 (untagged, co-expressed with the polymerase module) (natural protein, S. cerevisiae, UniProt Q12102 1-859, looked up)
# chain: MTYKYNCCDDGSGTTVGSVVRFDNVTLLIDPGWNPSKVSYEQCIKYWEKVIPEIDVIILSQPTIECLGAHSLLYYNFTSHFISRIQVYATLPVINLGRVSTIDSYASAGVIGPYDTNKLDLEDIEISFDHIVPLKYSQLVDLRSRYDGLTLLAYNAGVCPGGSIWCISTYSEKLVYAKRWNHTRDNILNAASILDATGKPLSTLMRPSAIITTLDRFGSSQPFKKRSKIFKDTLKKGLSSDGSVIIPVDMSGKFLDLFTQVHELLFESTKINAHTQVPVLILSYARGRTLTYAKSMLEWLSPSLLKTWENRNNTSPFEIGSRIKIIAPNELSKYPGSKICFVSEVGALINEVIIKVGNSEKTTLILTKPSFECASSLDKILEIVEQDERNWKTFPEDGKSFLCDNYISIDTIKEEPLSKEETEAFKVQLKEKKRDRNKKILLVKRESKKLANGNAIIDDTNGERAMRNQDILVENVNGVPPIDHIMGGDEDDDEEEENDNLLNLLKDNSEKSAAKKNTEVPVDIIIQPSAASKHKMFPFNPAKIKKDDYGTVVDFTMFLPDDSDNVNQNSRKRPLKDGAKTTSPVNEEDNKNEEEDGYNMSDPISKRSKHRASRYSGFSGTGEAENFDNLDYLKIDKTLSKRTISTVNVQLKCSVVILNLQSLVDQRSASIIWPSLKSRKIVLSAPKQIQNEEITAKLIKKNIEVVNMPLNKIVEFSTTIKTLDISIDSNLDNLLKWQRISDSYTVATVVGRLVKESLPQVNNHQKTASRSKLVLKPLHGSSRSHKTGALSIGDVRLAQLKKLLTEKNYIAEFKGEGTLVINEKVAVRKINDAETIIDGTPSELFDTVKKLVTDMLAKI
# notes: Cft2, S. cerevisiae, pseudo-nuclease subunit of the nuclease module of CPF; source: Sf9, co-infected with viruses for the polymerase module (Pfs2-SII) and Ysh1-Cft2; in lysate, and co-purified with the polymerase module (Strep-Tactin, MonoQ)
# B4: Pfs2 (natural protein, S. cerevisiae)
# chain: MDGHNQNQYQNQNQIQQSQQPPLKKYVTQRRSVDVSSPYINLYYNRRHGLPNLVVEPETSYTIDIMPPNAYRGRDRVINLPSKFTHLSSNKVKHVIPAIQWTPEGRRLVVATYSGEFSLWNASSFTFETLMQAHDSAVTTMKYSHDSDWMISGDADGMIKIWQPNFSMVKEIDAAHTESIRDMAFSSNDSKFVTCSDDNILKIWNFSNGKQERVLSGHHWDVKSCDWHPEMGLIASASKDNLVKLWDPRSGNCISSILKFKHTVLKTRFQPTKGNLLMAISKDKSCRVFDIRYSMKELMCVRDETDYMTLEWHPINESMFTLACYDGSLKHFDLLQNLNEPILTIPYAHDKCITSLSYNPVGHIFATAAKDRTIRFWTRARPIDPNAYDDPTYNNKKINGWFFGINNDINAVREKSEFGAAPPPPATLEPHALPNMNGFINKKPRQEIPGIDSNIKSSTLPGLSI
# notes: Pfs2, S. cerevisiae, subunit of the polymerase module of CPF; E. coli codon-optimized gene (GeneArt); source: Sf9, baculovirus, co-expressed with Mpe1-SII, in lysate; also as subunit of the purified polymerase module (Sf9)
# B5: Cft2(S), residues 1-720 (domain or fragment, S. cerevisiae, UniProt Q12102 1-720, looked up)
# chain: MTYKYNCCDDGSGTTVGSVVRFDNVTLLIDPGWNPSKVSYEQCIKYWEKVIPEIDVIILSQPTIECLGAHSLLYYNFTSHFISRIQVYATLPVINLGRVSTIDSYASAGVIGPYDTNKLDLEDIEISFDHIVPLKYSQLVDLRSRYDGLTLLAYNAGVCPGGSIWCISTYSEKLVYAKRWNHTRDNILNAASILDATGKPLSTLMRPSAIITTLDRFGSSQPFKKRSKIFKDTLKKGLSSDGSVIIPVDMSGKFLDLFTQVHELLFESTKINAHTQVPVLILSYARGRTLTYAKSMLEWLSPSLLKTWENRNNTSPFEIGSRIKIIAPNELSKYPGSKICFVSEVGALINEVIIKVGNSEKTTLILTKPSFECASSLDKILEIVEQDERNWKTFPEDGKSFLCDNYISIDTIKEEPLSKEETEAFKVQLKEKKRDRNKKILLVKRESKKLANGNAIIDDTNGERAMRNQDILVENVNGVPPIDHIMGGDEDDDEEEENDNLLNLLKDNSEKSAAKKNTEVPVDIIIQPSAASKHKMFPFNPAKIKKDDYGTVVDFTMFLPDDSDNVNQNSRKRPLKDGAKTTSPVNEEDNKNEEEDGYNMSDPISKRSKHRASRYSGFSGTGEAENFDNLDYLKIDKTLSKRTISTVNVQLKCSVVILNLQSLVDQRSASIIWPSLKSRKIVLSAPKQIQNEEITAKLIKKNIEVVNMPLNKIVEFSTTI
# notes: Cft2, S. cerevisiae, residues 1-720, lacks the disordered C-terminal region; also called Cft2(short); truncated version of Cft2; source: E. coli BL21 Star (DE3), purified (Ni-NTA, 3C cleavage, MonoQ, Superdex 200)
# Tests used:
# Cft2(S), residues 1-720 [1] = target: B5; assay: cross-linking; polymerase module-Cft2(S)-Mpe1-RNA complex (0.5 mg/ml) with 2 mM sulfo-SDA for 2 h on ice, UV 365 nm for 15 min; 20 mM HEPES, 50 mM NaCl, 0.5 mM TCEP, pH 8.0; mass spectrometry, 1 % FDR on link level; settings: both partners purified
# [2] = target: T2, S. cerevisiae polymerase module with an SII tag on Pfs2 (S. cerevisiae, UniProt Q06632 1-1357; P29468 1-568; P42841 1-465; P45976 1-327; Q06102 2-208); assay: SEC; analytical, Superose 6 Increase 3.2/300, SEC 50 buffer (20 mM HEPES pH 8, 50 mM NaCl, 0.5 mM TCEP); 5 μM polymerase module or polymerase module-Cft2 complex, 15 μM Mpe1 or variant, 10 μM Cft2(S) or 720 μM yPIM peptide; with or without 10 μM precleaved CYC1 RNA; settings: both partners purified
# T2 construct: Cft1, S. cerevisiae; Pap1, S. cerevisiae; Pfs2, S. cerevisiae; Fip1, S. cerevisiae; Yth1, S. cerevisiae; That Construct B is the plasmid of this co-infection is surmised from the SII tag on Pfs2; also called Construct B (Cft1-Pap1-Pfs2-SII-Fip1-Yth1); source: Sf9, co-infected with a virus for untagged Cft2 and Ysh1; in lysate, and purified with Cft2 (Strep-Tactin, MonoQ); copies: + + + +
# [3] = target: T2, S. cerevisiae polymerase module with an …; assay: pull-down; Sf9 cells co-infected with viruses for the polymerase module (SII on Pfs2) and for untagged Cft2 and Ysh1; Strep-Tactin in Buffer A, then MonoQ; settings: partners not purified
# Cft2(S), residues 1-720 [4] = target: B5; assay: cryo-EM structure; sample of polymerase module, Mpe1, Cft2(S) and precleaved CYC1 RNA; only the polymerase module and the yPIM of Cft2 are seen in the map; settings: both partners purified
# Cft1 = target: T1, Cft1; assay: as above; settings: both partners purified
# T2 sequence (P29468 whole entry, chain 2 of 2): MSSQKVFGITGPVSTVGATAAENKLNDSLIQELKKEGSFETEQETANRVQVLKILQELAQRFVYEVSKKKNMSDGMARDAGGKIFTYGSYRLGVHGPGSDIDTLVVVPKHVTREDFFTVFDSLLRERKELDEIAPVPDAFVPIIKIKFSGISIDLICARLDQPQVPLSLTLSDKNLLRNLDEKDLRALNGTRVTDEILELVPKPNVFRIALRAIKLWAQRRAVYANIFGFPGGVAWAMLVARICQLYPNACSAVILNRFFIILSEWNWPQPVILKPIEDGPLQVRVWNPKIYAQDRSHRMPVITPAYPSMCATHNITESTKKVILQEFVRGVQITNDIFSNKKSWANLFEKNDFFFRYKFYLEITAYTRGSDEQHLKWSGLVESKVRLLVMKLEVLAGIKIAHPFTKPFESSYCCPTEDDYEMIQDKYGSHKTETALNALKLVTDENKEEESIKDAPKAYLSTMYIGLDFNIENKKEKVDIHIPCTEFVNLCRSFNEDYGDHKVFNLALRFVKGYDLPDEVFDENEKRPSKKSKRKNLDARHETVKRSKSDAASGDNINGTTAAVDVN
# T2 sequence (P45976 whole entry, chain 4 of 2): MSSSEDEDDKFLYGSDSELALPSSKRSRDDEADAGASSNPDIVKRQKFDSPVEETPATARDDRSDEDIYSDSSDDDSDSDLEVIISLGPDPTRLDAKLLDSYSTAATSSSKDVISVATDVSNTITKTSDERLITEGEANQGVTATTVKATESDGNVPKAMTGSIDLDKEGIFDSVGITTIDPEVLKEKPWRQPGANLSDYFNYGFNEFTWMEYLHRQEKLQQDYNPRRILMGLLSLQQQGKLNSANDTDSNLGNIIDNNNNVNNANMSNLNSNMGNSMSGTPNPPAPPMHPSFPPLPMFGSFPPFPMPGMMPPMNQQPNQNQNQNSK
binder,measurement,setting,value
B1,binding result,"Cft2(S), residues 1-720 [1]",binds
B2,binding result,[2],binds
B3,binding result,[3],binds
B4,binding result,"Cft2(S), residues 1-720 [4]",binds
B5,binding result,Cft1,binds
